In the supplement of paper PMC9233669:
This sample holds only a part of the variants without activity.

Legend:
[1] = tested on: biotinyl-Leu-oxazolone; test: self-aminoacylation, catalytic enhancement (BLO) (fold over background); higher = more active; k-Seq, kA / k0A0; sequences stand for … in GGGAAUGGAUCCACAUCUACGAAUUC…UUCACUGCAGACUUGACGAAGCUG
Summary of the method: (§1)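 The uncatalyzed rate is the low-activity peak of a bimodal Gaussian fit, and catalytic enhancement is median kA divided by it. The kA values came from pseudo-first-order fits, with 1000 bootstraps, of per-sequence fraction reacted measured by streptavidin capture, triplicate qPCR and Illumina sequencing. Mutagenized RNA pools with a 21-nt variable region (0.43 μM) were reacted with each biotinyl-aminoacyl-oxazolone at 2–1250 μM in 50 μL HEPES/NaCl/KCl/MgCl2/CaCl2 buffer with 5% acetonitrile, pH 6.9–7.0, for 90 minutes at room temperature.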

[2] = tested on: biotinyl-Val-oxazolone; test: self-aminoacylation, catalytic enhancement (BVO) (fold over background); higher = more active; k-Seq, kA / k0A0; sequences stand for … in GGGAAUGGAUCCACAUCUACGAAUUC…UUCACUGCAGACUUGACGAAGCUG
Summary of the method: as §1

[3] = tested on: biotinyl-Met-oxazolone; test: self-aminoacylation, catalytic enhancement (BMO) (fold over background); higher = more active; k-Seq, kA / k0A0; sequences stand for … in GGGAAUGGAUCCACAUCUACGAAUUC…UUCACUGCAGACUUGACGAAGCUG
Summary of the method: as §1

[4] = tested on: biotinyl-Ile-oxazolone; test: self-aminoacylation, catalytic enhancement (BIO) (fold over background); higher = more active; k-Seq, kA / k0A0; sequences stand for … in GGGAAUGGAUCCACAUCUACGAAUUC…UUCACUGCAGACUUGACGAAGCUG
Summary of the method: as §1

[5] = tested on: biotinyl-Phe-oxazolone; test: self-aminoacylation, catalytic enhancement (BFO) (fold over background); higher = more active; k-Seq, kA / k0A0; sequences stand for … in GGGAAUGGAUCCACAUCUACGAAUUC…UUCACUGCAGACUUGACGAAGCUG
Summary of the method: as §1

[6] = tested on: biotinyl-Trp-oxazolone; test: self-aminoacylation, catalytic enhancement (BWO) (fold over background); higher = more active; k-Seq, kA / k0A0; sequences stand for … in GGGAAUGGAUCCACAUCUACGAAUUC…UUCACUGCAGACUUGACGAAGCUG
Summary of the method: as §1

Sequence | self-aminoacylation [1] | self-aminoacylation [2] | self-aminoacylation [3] | self-aminoacylation [4] | self-aminoacylation [5] | self-aminoacylation [6]
CUACUUCAAACACGCGGUCUG [Fam1A.1 aminoacylation ribozyme variant] | 1.42 | 1.36 | 1.64 | 1.61 | 0.711 | 1.74
AUUACCCUGGUCAAAGAGUGA [Fam2.1 aminoacylation ribozyme variant] | 8.08 | 4.26 | 8.35 | 4 | 45.6 | 10.5
AAUCACCUAGGUCAUUGGGUG [Fam2.2 aminoacylation ribozyme variant] | 3.6 | 2.65 | 2.74 | 2.94 | 13.1 | 4.15
CUAAUUCAAACAAUCGGGCUG [Fam1A.1 aminoacylation ribozyme variant] | 1.02 | 0.852 | 0.87 | 0.805 | 1.49 | 1.14
ACUACCCUGGUCAACGAGUGA [Fam2.1 aminoacylation ribozyme variant] | 5.55 | 3.82 | 5.53 | 3.48 | 17 | 6.49
AAGUUUGCUACUACUCGCAAG [Fam3.1 aminoacylation ribozyme variant] | 0.791 | 0.855 | 0.647 | 0.565 | 0.639 | 0.621
CCACAUCAAACAAUCGGUCUG [Fam1A.1 aminoacylation ribozyme variant] | 1.05 | 1.07 | 1.04 | 1.13 | 1.46 | 1.98
AUUUCCCUGUUCAUCGAGUGA [Fam2.1 aminoacylation ribozyme variant] | 5.04 | 3.09 | 5.22 | 2.79 | 11.4 | 5.62
AUUCUCUUAGGUCAUCGGGUG [Fam2.2 aminoacylation ribozyme variant] | 12.5 | 5.53 | 9.08 | 5.7 | 77.6 | 9.36
AUUCACCUAGCUCAUCGGUUG [Fam2.2 aminoacylation ribozyme variant] | 0.861 | 0.845 | 0.921 | 0.978 | 0.258 | 0.533
